The record followed here is doi:10.1101/2023.01.30.525828, “A versatile synaptotagmin-1 nanobody provides perturbation-free live synaptic imaging and low linkage-error in super-resolution microscopy” (bioRxiv, 2023).

Experiment [1] concerns the target T1, desthio-biotinilated Syt-1(97-421) (Rattus norvegicus (Rat)., UniProt P21707, desthiobiotin (conjugated with desthiobiotin-N-hydroxysuccinimide ester)).
T1 construct: Synaptotagmin 1, rat, cytosolic domain, amino acids 97-421; The phage-display methods also print Syt-1(197-421) for this antigen; also called rSyt-1(97-421); immobilized cytosolic rSyt-1(97-421); source: E. coli NEB-Express, purified (Ni beads, SUMO protease elution), conjugated to desthiobiotin-NHS ester
Nature of the experiment: ELISA; phage ELISA: desthio-biotinilated Syt-1(97-421) immobilised overnight at 4°C on MaxiSorp plate; 25 μl phage supernatant in 5% skim milk PBS-T, 1 h RT; detected with anti-M13-HRP. The note with it: one partner purified.

Experiment [2] addresses T2, full-length rat Syt-1 fused to EGFP (Rattus norvegicus (Rat)., UniProt P21707).
T2 construct: Synaptotagmin 1, rat, full length; also called Syt1-EGFP; source: COS-7, transiently transfected, in fixed cells
Nature of the experiment: immunostaining of cells or tissue; COS-7 cells transfected with Syt1-EGFP, fixed with 4% PFA, permeabilised; 50 nM fluorescent nanobody, 2 h RT. The note with it: one partner purified.

Experiment [3] addresses T3, cytosolic (amino acids 97-421) domain of rat Syt-1 (Rattus norvegicus (Rat)., UniProt P21707).
T3 construct: Synaptotagmin 1, rat, cytosolic domain, amino acids 97-421; also called rSyt-1(97-421); Syt-1(97-421); source: E. coli NEB-Express, purified (Ni beads, eluted on column with SUMO protease)
Nature of the experiment: far-Western, overlay or dot blot; dot blot: ~1 μg target protein spotted on nitrocellulose; NbA51 or NbA91 labeled with AbberiorStar635p at 5 nM in 5% milk PBS-Tween20, 1 h. The note with it: both partners purified.

The target of experiment [4] is T3, cytosolic (amino acids 97-421) domain …. Nature of the experiment: MST; NbSyt1 labelled with Alexa647 in MST buffer with 0.05 % Tween, incubated with dilutions of purified Syt-1(97-421); NT.115Pico Monolith. Particulars: both partners purified.

T3 sequence (P21707 97-421): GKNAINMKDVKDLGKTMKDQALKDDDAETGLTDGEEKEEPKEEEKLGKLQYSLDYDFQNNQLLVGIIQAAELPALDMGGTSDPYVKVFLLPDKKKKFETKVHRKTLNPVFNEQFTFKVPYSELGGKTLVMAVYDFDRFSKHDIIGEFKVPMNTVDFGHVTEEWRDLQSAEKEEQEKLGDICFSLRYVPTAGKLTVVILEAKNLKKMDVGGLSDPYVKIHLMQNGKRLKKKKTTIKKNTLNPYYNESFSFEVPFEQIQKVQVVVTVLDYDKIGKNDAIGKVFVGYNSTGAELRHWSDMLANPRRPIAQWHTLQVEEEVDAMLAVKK
T2 sequence (P21707 whole entry, the tested form may be a part): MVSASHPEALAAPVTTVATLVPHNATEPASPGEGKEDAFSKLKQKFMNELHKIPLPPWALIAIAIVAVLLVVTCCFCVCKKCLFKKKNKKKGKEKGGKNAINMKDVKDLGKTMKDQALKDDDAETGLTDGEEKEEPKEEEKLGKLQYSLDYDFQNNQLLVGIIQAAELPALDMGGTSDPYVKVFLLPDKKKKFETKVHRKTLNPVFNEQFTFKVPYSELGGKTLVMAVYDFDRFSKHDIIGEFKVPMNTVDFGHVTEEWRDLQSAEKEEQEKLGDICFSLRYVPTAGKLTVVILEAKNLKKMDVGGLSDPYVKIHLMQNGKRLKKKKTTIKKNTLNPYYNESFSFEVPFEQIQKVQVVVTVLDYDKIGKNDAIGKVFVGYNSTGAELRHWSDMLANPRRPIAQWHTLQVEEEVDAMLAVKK
T1 sequence (P21707 97-421): as the sequence (P21707 97-421) above

B1: clone A91 displayed on phage (VHH)
VHH: EVQLVESGGGLVQPGGSLRLSCVASGFPFSKYFMSWVRQAPGKGLEWVSTISSSGSTTTYTESVKGRFTISRDNAKNTLYLQMNNLKPEDTAVYYCEKGSWAPNNARGQGTQVS
notes: alpaca nanobody clone A91; One of the five clones positive in the phage ELISA; the fusion partner on the phage is surmised from the phagemid; also called NbA91
Turning to B1, in experiment [1], the binding result is “binds”.

B2: NbA91 directly labeled with AbberiorStar635p (VHH)
VHH: B1 VHH
notes: alpaca nanobody clone A91; with one or two ectopic cysteines (at the C-terminus or at N- and C-termini); also called Nb-Ab635p
Consider B2, for which the binding result in experiment [2] and in experiment [3] was “binds” throughout.

B3: NbSyt1 labelled with Alexa647 (VHH)
VHH: EVQLEESGGGLVRPGGSLRLSCAASGFPFSKYFMSWVRQAPGKGLEWVSTISASGNYETYTESVKGRFTIARDNAKNTLYLQMNSLKPEDTAVYYCAKGSWARDMTRGQGTQVTVSS
notes: also called Fluorescent NbSyt1; source: E. coli SHuffle Express (NEB), purified (Ni beads, SUMO protease elution), labelled with maleimide fluorophore
Regarding B3, binding in experiment [4] was characterised by a dissociation constant (Kd) of 0.7 ± 0.3 nM.
